Data taken from paper PMC6372068 (Nature, 2018).
Blank lines part the entries; values can stand above or below the molecule they belong to.

What was measured:
[1] = molecular target: fatty acid synthase (FAS) α subunit, C-terminally fused to GFP (S. cerevisiae) (UniProt P19097); test: co-IP
[2] = molecular target: T1, fatty acid synthase (FAS) β subunit, C-terminally fused to GFP (S. cerevisiae, UniProt P07149 1-2051); test: selective ribosome profiling
[3] = molecular target: T1, fatty acid synthase (FAS) β subunit, …; test: co-IP
[4] = molecular target: T2, methionyl-tRNA synthetase MetRS, C-terminally fused to GFP (S. cerevisiae, UniProt P00958 1-751); test: selective ribosome profiling
T2 sequence: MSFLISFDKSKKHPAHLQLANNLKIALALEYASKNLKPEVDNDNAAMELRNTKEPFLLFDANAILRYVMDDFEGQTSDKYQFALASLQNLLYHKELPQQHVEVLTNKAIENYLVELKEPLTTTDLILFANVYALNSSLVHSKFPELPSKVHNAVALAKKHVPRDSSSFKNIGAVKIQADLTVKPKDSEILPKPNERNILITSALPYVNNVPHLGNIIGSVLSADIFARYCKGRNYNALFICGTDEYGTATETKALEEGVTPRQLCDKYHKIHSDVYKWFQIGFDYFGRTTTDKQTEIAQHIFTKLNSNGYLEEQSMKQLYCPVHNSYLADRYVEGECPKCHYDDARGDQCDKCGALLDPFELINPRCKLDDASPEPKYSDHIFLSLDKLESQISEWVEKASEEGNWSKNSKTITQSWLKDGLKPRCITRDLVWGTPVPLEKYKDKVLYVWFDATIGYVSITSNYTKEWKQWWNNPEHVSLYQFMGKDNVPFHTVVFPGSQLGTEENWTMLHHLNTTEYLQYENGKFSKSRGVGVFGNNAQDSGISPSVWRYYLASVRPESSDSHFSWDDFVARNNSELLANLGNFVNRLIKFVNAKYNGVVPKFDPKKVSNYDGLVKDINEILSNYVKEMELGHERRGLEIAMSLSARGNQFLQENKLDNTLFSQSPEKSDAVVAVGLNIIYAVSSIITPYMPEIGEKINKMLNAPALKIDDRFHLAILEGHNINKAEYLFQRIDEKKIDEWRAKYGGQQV

T1 sequence (P07149 whole entry, the tested form may be a part): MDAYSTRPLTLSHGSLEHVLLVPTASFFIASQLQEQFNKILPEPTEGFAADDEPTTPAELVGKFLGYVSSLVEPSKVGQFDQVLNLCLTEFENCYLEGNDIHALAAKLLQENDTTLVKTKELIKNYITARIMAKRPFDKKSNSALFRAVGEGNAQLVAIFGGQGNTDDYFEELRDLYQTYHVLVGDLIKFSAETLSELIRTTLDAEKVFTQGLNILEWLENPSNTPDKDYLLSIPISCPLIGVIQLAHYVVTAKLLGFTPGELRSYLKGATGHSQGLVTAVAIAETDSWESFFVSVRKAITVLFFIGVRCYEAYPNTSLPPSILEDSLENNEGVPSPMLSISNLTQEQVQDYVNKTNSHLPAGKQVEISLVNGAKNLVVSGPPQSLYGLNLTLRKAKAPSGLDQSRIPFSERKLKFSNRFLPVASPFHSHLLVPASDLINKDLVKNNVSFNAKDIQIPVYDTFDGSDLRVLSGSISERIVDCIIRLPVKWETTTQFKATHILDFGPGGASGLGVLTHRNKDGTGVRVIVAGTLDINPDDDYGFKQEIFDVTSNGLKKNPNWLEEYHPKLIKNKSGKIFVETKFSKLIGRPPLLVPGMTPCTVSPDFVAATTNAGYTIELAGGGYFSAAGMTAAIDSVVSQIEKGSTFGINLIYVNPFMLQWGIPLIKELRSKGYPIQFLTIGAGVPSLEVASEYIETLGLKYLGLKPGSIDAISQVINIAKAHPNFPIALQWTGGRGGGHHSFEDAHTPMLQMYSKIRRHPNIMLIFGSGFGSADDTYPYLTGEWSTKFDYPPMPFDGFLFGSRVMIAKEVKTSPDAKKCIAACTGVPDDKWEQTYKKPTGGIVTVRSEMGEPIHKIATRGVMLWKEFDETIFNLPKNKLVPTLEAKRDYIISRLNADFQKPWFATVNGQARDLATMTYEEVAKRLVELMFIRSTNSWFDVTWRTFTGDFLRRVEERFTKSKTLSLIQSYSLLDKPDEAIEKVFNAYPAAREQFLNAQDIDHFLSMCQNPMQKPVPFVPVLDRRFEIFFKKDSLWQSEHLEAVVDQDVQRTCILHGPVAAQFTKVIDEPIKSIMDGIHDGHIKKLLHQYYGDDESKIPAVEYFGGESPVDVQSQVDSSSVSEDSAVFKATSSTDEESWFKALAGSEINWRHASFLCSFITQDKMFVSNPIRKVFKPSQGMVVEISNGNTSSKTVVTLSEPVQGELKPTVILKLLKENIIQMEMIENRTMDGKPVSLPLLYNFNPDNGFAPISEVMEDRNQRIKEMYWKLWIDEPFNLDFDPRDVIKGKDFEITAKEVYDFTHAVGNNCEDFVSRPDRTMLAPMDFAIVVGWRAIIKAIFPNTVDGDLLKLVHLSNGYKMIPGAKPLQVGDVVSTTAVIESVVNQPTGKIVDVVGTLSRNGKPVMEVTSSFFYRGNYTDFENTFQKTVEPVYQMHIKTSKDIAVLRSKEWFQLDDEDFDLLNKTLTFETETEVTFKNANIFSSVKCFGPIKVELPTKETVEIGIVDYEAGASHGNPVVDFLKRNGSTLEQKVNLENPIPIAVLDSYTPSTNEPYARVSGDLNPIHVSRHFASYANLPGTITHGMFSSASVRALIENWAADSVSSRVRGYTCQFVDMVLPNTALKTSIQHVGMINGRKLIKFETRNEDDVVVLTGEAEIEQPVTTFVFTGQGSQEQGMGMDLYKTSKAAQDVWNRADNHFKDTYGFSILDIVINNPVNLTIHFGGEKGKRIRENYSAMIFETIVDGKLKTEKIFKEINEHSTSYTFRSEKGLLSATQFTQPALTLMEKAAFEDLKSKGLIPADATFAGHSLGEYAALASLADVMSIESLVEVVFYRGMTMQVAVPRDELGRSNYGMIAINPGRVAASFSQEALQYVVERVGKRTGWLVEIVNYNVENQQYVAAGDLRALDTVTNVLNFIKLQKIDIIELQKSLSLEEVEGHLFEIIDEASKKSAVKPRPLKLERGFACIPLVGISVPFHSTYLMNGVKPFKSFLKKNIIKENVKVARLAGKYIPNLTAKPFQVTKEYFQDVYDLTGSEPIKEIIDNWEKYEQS

stoichiometry N [1]: 1
Molecule: FAS β subunit, untagged, of the mature FAS, P07149 1-2051

fold enrichment of selected footprints over total ribosome-protected footprints [2]: ~40 fold
B1: nascent FAS α subunit (ribosome-nascent chain complexes) (natural protein)
chain: MKPEVEQELAHILLTELLAYQFASPVRWIETQDVFLKDFNTERVVEIGPSPTLAGMAQRTLKNKYESYDAALSLHREILCYSKDAKEIYYTPDPSELAAKEEPAKEEAPAPTPAASAPAPAAAAPAPVAAAAPAAAAAEIADEPVKASLLLHVLVAHKLKKSLDSIPMSKTIKDLVGGKSTVQNEILGDLGKEFGTTPEKPEETPLEELAETFQDTFSGALGKQSSSLLSRLISSKMPGGFTITVARKYLQTRWGLPSGRQDGVLLVALSNEPAARLGSEADAKAFLDSMAQKYASIVGVDLSSAASASGAAGAGAAAGAAMIDAGALEEITKDHKVLARQQLQVLARYLKMDLDNGERKFLKEKDTVAELQAQLDYLNAELGEFFVNGVATSFSRKKARTFDSSWNWAKQSLLSLYFEIIHGVLKNVDREVVSEAINIMNRSNDALIKFMEYHISNTDETKGENYQLVKTLGEQLIENCKQVLDVDPVYKDVAKPTGPKTAIDKNGNITYSEEPREKVRKLSQYVQEMALGGPITKESQPTIEEDLTRVYKAISAQADKQDISSSTRVEFEKLYSDLMKFLESSKEIDPSQTTQLAGMDVEDALDKDSTKEVASLPNKSTISKTVSSTIPRETIPFLHLRKKTPAGDWKYDRQLSSLFLDGLEKAAFNGVTFKDKYVLITGAGKGSIGAEVLQGLLQGGAKVVVTTSRFSKQVTDYYQSIYAKYGAKGSTLIVVPFNQGSKQDVEALIEFIYDTEKNGGLGWDLDAIIPFAAIPEQGIELEHIDSKSEFAHRIMLTNILRMMGCVKKQKSARGIETRPAQVILPMSPNHGTFGGDGMYSESKLSLETLFNRWHSESWANQLTVCGAIIGWTRGTGLMSANNIIAEGIEKMGVRTFSQKEMAFNLLGLLTPEVVELCQKSPVMADLNGGLQFVPELKEFTAKLRKELVETSEVRKAVSIETALEHKVVNGNSADAAYAQVEIQPRANIQLDFPELKPYKQVKQIAPAELEGLLDLERVIVVTGFAEVGPWGSARTRWEMEAFGEFSLEGCVEMAWIMGFISYHNGNLKGRPYTGWVDSKTKEPVDDKDVKAKYETSILEHSGIRLIEPELFNGYNPEKKEMIQEVIVEEDLEPFEASKETAEQFKHQHGDKVDIFEIPETGEYSVKLLKGATLYIPKALRFDRLVAGQIPTGWNAKTYGISDDIISQVDPITLFVLVSVVEAFIASGITDPYEMYKYVHVSEVGNCSGSGMGGVSALRGMFKDRFKDEPVQNDILQESFINTMSAWVNMLLISSSGPIKTPVGACATSVESVDIGVETILSGKARICIVGGYDDFQEEGSFEFGNMKATSNTLEEFEHGRTPAEMSRPATTTRNGFMEAQGAGIQIIMQADLALKMGVPIYGIVAMAATATDKIGRSVPAPGKGILTTAREHHSSVKYASPNLNMKYRKRQLVTREAQIKDWVENELEALKLEAEEIPSEDQNEFLLERTREIHNEAESQLRAAQQQWGNDFYKRDPRIAPLRGALATYGLTIDDLGVASFHGTSTKANDKNESATINEMMKHLGRSEGNPVIGVFQKFLTGHPKGAAGAWMMNGALQILNSGIIPGNRNADNVDKILEQFEYVLYPSKTLKTDGVRAVSITSFGFGQKGGQAIVVHPDYLYGAITEDRYNEYVAKVSAREKSAYKFFHNGMIYNKLFVSKEHAPYTDELEEDVYLDPLARVSKDKKSGSLTFNSKNIQSKDSYINANTIETAKMIENMTKEKVSNGGVGVDVELITSINVENDTFIERNFTPQEIEYCSAQPSVQSSFAGTWSAKEAVFKSLGVKSLGGGAALKDIEIVRVNKNAPAVELHGNAKKAAEEAGVTDVKVSISHDDLQAVAVAVSTKK

stoichiometry N [3]: 1
B2: FAS α subunit, untagged, of the mature FAS (natural protein)
chain: MKPEVEQELAHILLTELLAYQFASPVRWIETQDVFLKDFNTERVVEIGPSPTLAGMAQRTLKNKYESYDAALSLHREILCYSKDAKEIYYTPDPSELAAKEEPAKEEAPAPTPAASAPAPAAAAPAPVAAAAPAAAAAEIADEPVKASLLLHVLVAHKLKKSLDSIPMSKTIKDLVGGKSTVQNEILGDLGKEFGTTPEKPEETPLEELAETFQDTFSGALGKQSSSLLSRLISSKMPGGFTITVARKYLQTRWGLPSGRQDGVLLVALSNEPAARLGSEADAKAFLDSMAQKYASIVGVDLSSAASASGAAGAGAAAGAAMIDAGALEEITKDHKVLARQQLQVLARYLKMDLDNGERKFLKEKDTVAELQAQLDYLNAELGEFFVNGVATSFSRKKARTFDSSWNWAKQSLLSLYFEIIHGVLKNVDREVVSEAINIMNRSNDALIKFMEYHISNTDETKGENYQLVKTLGEQLIENCKQVLDVDPVYKDVAKPTGPKTAIDKNGNITYSEEPREKVRKLSQYVQEMALGGPITKESQPTIEEDLTRVYKAISAQADKQDISSSTRVEFEKLYSDLMKFLESSKEIDPSQTTQLAGMDVEDALDKDSTKEVASLPNKSTISKTVSSTIPRETIPFLHLRKKTPAGDWKYDRQLSSLFLDGLEKAAFNGVTFKDKYVLITGAGKGSIGAEVLQGLLQGGAKVVVTTSRFSKQVTDYYQSIYAKYGAKGSTLIVVPFNQGSKQDVEALIEFIYDTEKNGGLGWDLDAIIPFAAIPEQGIELEHIDSKSEFAHRIMLTNILRMMGCVKKQKSARGIETRPAQVILPMSPNHGTFGGDGMYSESKLSLETLFNRWHSESWANQLTVCGAIIGWTRGTGLMSANNIIAEGIEKMGVRTFSQKEMAFNLLGLLTPEVVELCQKSPVMADLNGGLQFVPELKEFTAKLRKELVETSEVRKAVSIETALEHKVVNGNSADAAYAQVEIQPRANIQLDFPELKPYKQVKQIAPAELEGLLDLERVIVVTGFAEVGPWGSARTRWEMEAFGEFSLEGCVEMAWIMGFISYHNGNLKGRPYTGWVDSKTKEPVDDKDVKAKYETSILEHSGIRLIEPELFNGYNPEKKEMIQEVIVEEDLEPFEASKETAEQFKHQHGDKVDIFEIPETGEYSVKLLKGATLYIPKALRFDRLVAGQIPTGWNAKTYGISDDIISQVDPITLFVLVSVVEAFIASGITDPYEMYKYVHVSEVGNCSGSGMGGVSALRGMFKDRFKDEPVQNDILQESFINTMSAWVNMLLISSSGPIKTPVGACATSVESVDIGVETILSGKARICIVGGYDDFQEEGSFEFGNMKATSNTLEEFEHGRTPAEMSRPATTTRNGFMEAQGAGIQIIMQADLALKMGVPIYGIVAMAATATDKIGRSVPAPGKGILTTAREHHSSVKYASPNLNMKYRKRQLVTREAQIKDWVENELEALKLEAEEIPSEDQNEFLLERTREIHNEAESQLRAAQQQWGNDFYKRDPRIAPLRGALATYGLTIDDLGVASFHGTSTKANDKNESATINEMMKHLGRSEGNPVIGVFQKFLTGHPKGAAGAWMMNGALQILNSGIIPGNRNADNVDKILEQFEYVLYPSKTLKTDGVRAVSITSFGFGQKGGQAIVVHPDYLYGAITEDRYNEYVAKVSAREKSAYKFFHNGMIYNKLFVSKEHAPYTDELEEDVYLDPLARVSKDKKSGSLTFNSKNIQSKDSYINANTIETAKMIENMTKEKVSNGGVGVDVELITSINVENDTFIERNFTPQEIEYCSAQPSVQSSFAGTWSAKEAVFKSLGVKSLGGGAALKDIEIVRVNKNAPAVELHGNAKKAAEEAGVTDVKVSISHDDLQAVAVAVSTKK

fold enrichment in footprints [4]: ≥ 30 fold
B3: nascent GluRS (ribosome-nascent chain complexes) (natural protein)
chain: MPSTLTINGKAPIVAYAELIAARIVNALAPNSIAIKLVDDKKAPAAKLDDATEDVFNKITSKFAAIFDNGDKEQVAKWVNLAQKELVIKNFAKLSQSLETLDSQLNLRTFILGGLKYSAADVACWGALRSNGMCGSIIKNKVDVNVSRWYTLLEMDPIFGEAHDFLSKSLLELKKSANVGKKKETHKANFEIDLPDAKMGEVVTRFPPEPSGYLHIGHAKAALLNQYFAQAYKGKLIIRFDDTNPSKEKEEFQDSILEDLDLLGIKGDRITYSSDYFQEMYDYCVQMIKDGKAYCDDTPTEKMREERMDGVASARRDRSVEENLRIFTEEMKNGTEEGLKNCVRAKIDYKALNKTLRDPVIYRCNLTPHHRTGSTWKIYPTYDFCVPIVDAIEGVTHALRTIEYRDRNAQYDWMLQALRLRKVHIWDFARINFVRTLLSKRKLQWMVDKDLVGNWDDPRFPTVRGVRRRGMTVEGLRNFVLSQGPSRNVINLEWNLIWAFNKKVIDPIAPRHTAIVNPVKIHLEGSEAPQEPKIEMKPKHKKNPAVGEKKVIYYKDIVVDKDDADVINVDEEVTLMDWGNVIITKKNDDGSMVAKLNLEGDFKKTKHKLTWLADTKDVVPVDLVDFDHLITKDRLEEDESFEDFLTPQTEFHTDAIADLNVKDMKIGDIIQFERKGYYRLDALPKDGKPYVFFTIPDGKSVNKYGAKK
